Assay results published in publication PMC9953421, “Regulation of CRISPR-Associated Genes by Rv1776c (CasR) in Mycobacterium tuberculosis”.

T1: CasR (Rv1776c) (UniProt O33179 1-186)
T1 sequence: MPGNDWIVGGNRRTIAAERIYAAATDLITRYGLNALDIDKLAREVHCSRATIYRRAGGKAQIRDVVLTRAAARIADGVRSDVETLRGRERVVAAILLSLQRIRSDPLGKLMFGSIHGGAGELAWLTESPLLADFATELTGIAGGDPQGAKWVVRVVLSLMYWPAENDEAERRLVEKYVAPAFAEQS


Target: T1, CasR (Rv1776c)
Experiment: EMSA; 0-2 uM protein
Details: protein: recombinant; tags: N-terminal His (pET28a); chain copies: 2

Binder	binding result
csm6p2 (dsDNA) DNA 1: CGATCAGGAAAACAATTAGACGCAGGGGC DNA 2: GCCCCTGCGTCTAATTGTTTTCCTGATCG	no binding
casRp4 (dsDNA) DNA 1: AATAGCGCCCCGTTGTTAGACTAGATGA DNA 2: TCATCTAGTCTAACAACGGGGCGCTATT	no binding
